Substitutions are numbered along the chain they refer to. Like-named read-outs stand apart in the source and are kept apart here.
B1: AB-1 (antibody, V domains shown)
VH: EVQLVESGAEVKKPGESLKISCKGSGYTFTRYWIGWVRQMPGKGLEWMGIIYPGDSDVRYSPSFQGHVTISADKSISTAYLQWNSLKASDTAMYYCARLPQYCSKGVCYRWFDPWGQGTLVTVSS
VL: EIVLTQSPSSVSASVGDRVTITCRASQGISSWLAWYQQKPGKAPKLLIYAASSLQSGVPSRFSGSGSGTDFTLTISSLQPEDFATYYCQQGHSFPYTFGQGTNLEIK
B2: Reference Antibody (antibody, V domains shown)
VH: B1 VH with V58T, K105N, Y109Q
VL: B1 VL with H92N

Experiments:
Experiment in all cases: cell-based or functional assay
[1] = biological target: SARS-CoV-2 D614G Spike on pseudovirus (SARS-CoV-2, UniProt P0DTC2 14-1273)
[2] = biological target: T1, SARS-CoV-2 Delta Spike on virus particles (SARS-CoV-2)
[3] = biological target: T2, SARS-CoV-2 Omicron BA.2 Spike on pseudovirus (SARS-CoV-2)
[4] = biological target: T3, SARS-CoV-2 Omicron BA.4/5 Spike on pseudovirus (SARS-CoV-2)
[5] = biological target: T1, SARS-CoV-2 Delta Spike on virus …; remark: listed apart in the source
[6] = biological target: T4, SARS-CoV-2 Omicron BA.1 Spike on virus particles (SARS-CoV-2)
[7] = biological target: T2, SARS-CoV-2 Omicron BA.2 Spike on …; remark: listed apart in the source
[8] = biological target: T5, SARS-CoV-2 Omicron BA.2.12.1 Spike on pseudovirus (SARS-CoV-2)
[9] = biological target: T3, SARS-CoV-2 Omicron BA.4/5 Spike on …; remark: listed apart in the source
[10] = biological target: T1, SARS-CoV-2 Delta Spike on virus …; remark: listed apart in the source
[11] = biological target: T4, SARS-CoV-2 Omicron BA.1 Spike on virus …; remark: listed apart in the source
[12] = biological target: T2, SARS-CoV-2 Omicron BA.2 Spike on …; remark: listed apart in the source
[13] = biological target: T5, SARS-CoV-2 Omicron BA.2.12.1 Spike on …; remark: listed apart in the source
[14] = biological target: T3, SARS-CoV-2 Omicron BA.4/5 Spike on …; remark: listed apart in the source
[15] = biological target: T1, SARS-CoV-2 Delta Spike on virus …; remark: listed apart in the source
[16] = biological target: T4, SARS-CoV-2 Omicron BA.1 Spike on virus …; remark: listed apart in the source
[17] = biological target: T3, SARS-CoV-2 Omicron BA.4/5 Spike on …; remark: listed apart in the source
[18] = biological target: SARS-CoV-2 Omicron BA.4/5+K444T Spike on pseudovirus (SARS-CoV-2)
[19] = biological target: T5, SARS-CoV-2 Omicron BA.2.12.1 Spike on …; remark: listed apart in the source

Binder	EC50, pseudovirus neutralization on TMPRSS2-Vero E6 cells [1]	IC50, pseudovirus neutralization [2]	IC50, pseudovirus neutralization [3]	IC50, pseudovirus neutralization [4]	IC50, pseudovirus neutralization [5]	IC50, pseudovirus neutralization [6]	IC50, pseudovirus neutralization [7]	IC50, pseudovirus neutralization [8]	IC50, pseudovirus neutralization [9]	% neutralization at 4.5 µg/ml, pseudovirus [10]	% neutralization at 4.5 µg/ml, pseudovirus [11]	% neutralization at 4.5 µg/ml, pseudovirus [12]	% neutralization at 4.5 µg/ml, pseudovirus [13]	% neutralization at 4.5 µg/ml, pseudovirus [14]	IC50, live virus neutralization [15]	IC50, live virus neutralization [16]	Neutralization - IC50, pseudovirus [17]	Neutralization - IC50, pseudovirus [18]	IC50, pseudovirus neutralization [19]
B1	0.013 µg/mL	0.034 µg/mL	0.031 µg/mL	0.075 µg/mL	0.0139 µg/mL	0.0088 µg/mL	0.0219 µg/mL	0.0133 µg/mL	0.0278 µg/mL	99.5%	96.5%	89.9%	89.2%	90.4%	0.236 µg/mL	0.119 µg/mL	0.0101 µg/mL	0.0094 µg/mL	
B2		0.256 µg/mL	1.25 µg/mL	0.634 µg/mL	0.0681 µg/mL	0.0261 µg/mL	0.0941 µg/mL	0.0307 µg/mL	0.0314 µg/mL	93.9%	91.9%	74.5%		74.4%	7.45 µg/mL	0.528 µg/mL			0.337 µg/mL
